Data from article PMC9951875.
pKd: −log10 of the molar value.

Target: UspA2 (ubiquitous surface protein A2), displayed on E. coli BL21(DE3) (Moraxella catarrhalis Bc5) (UniProt Q9XD55)
Experiment: fluorescence cell-binding titration (eluted FAM-aptamer)

## ATCCAGAGTGACGCAGCATGGGACGGTGCGGGGGAGGAGGATGAGCGTGGTCGTTGGGTGGCTGCCGCAATGTCGTTGGTGGCCC [FAM-Apt1]
  pKd: 6.67

## GGGCCACCAACGACATTGCGGCAGCCACCCAACGACCACGCTCATCCTCCTCCCCCGCACCGTCCCATGCTGCGTCACTCTGGAT [FAM-Apt1_RC]
  pKd: 8.47
